In patent US20220064302A1 (GIGAGEN, published 2022):
Each block holds one binder with its values, some of them ahead of it.

Key:
[1] = biological target: T1, human PD-1 (soluble PD-1 protein, R&D Systems) (human, UniProt Q15116 25-170, limits assumed); assay: BLI (ForteBio), mAb on AHC biosensor, PD-1 as analyte
T1 construct: the kinetics paragraphs say only 'PD-1' / 'antigen'; also called hPD-1; soluble PD-1 immunogen
Experimental: (§1) For BLI, antibodies were loaded onto an Anti-Human IgG Fc (AHC) biosensor using the Octet Red96 system (ForteBio). Loaded biosensors were dipped into antigen dilutions beginning at 300 nM, with 6 serial dilutions at 1:3. Kinetic analysis was performed using a 1:1 binding model and global fitting.

[2] = biological target: T1, human PD-1 (soluble PD-1 protein, R&D …); assay: BLI, mAb on AHC biosensor, PD-1 as analyte
Experimental: The binding specificity and affinity of each full-length antibody towards PD-1 were determined using BLI and/or SPR. […] Anti-cyno PD-1 affinity was measured using BLI.
as §1

PD-1 expressed on cells = PD-1 expressed on cells (human, UniProt Q15116 25-288); assay: cell-based or functional assay
Chain of PD-1 expressed on cells (Q15116 25-288 limits assumed): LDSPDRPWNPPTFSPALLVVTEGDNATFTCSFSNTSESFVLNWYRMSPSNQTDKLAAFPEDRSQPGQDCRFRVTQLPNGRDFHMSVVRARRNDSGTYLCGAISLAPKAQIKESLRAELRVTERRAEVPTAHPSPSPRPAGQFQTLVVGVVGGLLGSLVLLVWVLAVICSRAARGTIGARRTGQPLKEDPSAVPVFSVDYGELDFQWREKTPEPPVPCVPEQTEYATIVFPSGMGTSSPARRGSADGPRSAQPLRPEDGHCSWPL

T1 sequence (Q15116 25-170 limits assumed): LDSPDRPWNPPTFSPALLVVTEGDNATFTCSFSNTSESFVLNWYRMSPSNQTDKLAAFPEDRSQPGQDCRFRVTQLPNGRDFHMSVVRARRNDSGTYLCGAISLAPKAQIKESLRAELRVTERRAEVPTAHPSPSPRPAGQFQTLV

Kd [1]: 18.4 nM
koff [1]: 0.00228 s⁻¹
kon [1]: 124000 M⁻¹ s⁻¹
Kd [2]: 18.4 nM
B1: A18 (antibody, V domains shown)
VH: QVQLVQSGTEVKKPGASVKVSCQASGYTFTSYDISWVRRAPGQGLEWMGWISAYNGNTNYAQKLQGRVTLTTDTSTSTAYMELRSLRSDDTAVYYCARRYYDILTEGGYYYVLDVWGQGTTVTVSS
VL: AIRMTQSPSSFSASTGDRVTITCRASQGISSYLAWYQQKPGKAPTLLIYAASTLQSGVPSRFSGSGSGTDFTLTISCLQSEDFATYYCQQYYSDPPTFGQGTKVEIK
notes: Tested as full-length mAb expressed in CHO cells; also called antibody 18; L18H18

Kd [1]: 148 nM
koff [1]: 0.00191 s⁻¹
kon [1]: 13000 M⁻¹ s⁻¹
Kd [2]: 148 nM
B2: A20 (antibody, V domains shown)
VH: EVQLVESGGGLVQPGGSLRLSCAASGFTFSFYDMHWVRQAKGKGLEWVSAIGTAGDTYYPGSVKGRFTISRENAKNSLYLQMNSLRAGDTAVYYCARGYCSTTNCFADYFDYWGQGTLVTVSS
VL: DIQLTQSPSFLSASVGDRVTITCRASQGISNYLAWYQQKPGKAPKLLIYAASTLQSGVPSRFSGSGSGTEFTLTISSLQPEDFATYYCHQLNSFPLTFGGGTKVEIK
notes: Tested as full-length mAb expressed in CHO cells; also called antibody 20; L20H20

Kd [1]: 792 nM
koff [1]: 0.0579 s⁻¹
kon [1]: 73100 M⁻¹ s⁻¹
Kd [2]: 792 nM
B3: A25 (antibody, V domains shown)
VH: QVQLVESGGGVVQPGRSLRLSCAASGFTFSSYGMHWVRQAPGKGLEWVGVIWYDGSIKYYADSVKGRFTISRDNSMNTLNLQMNSLRAEDTAVYYCAGDILTGSFDYWGQGTLVTVSS
VL: EIVLTQSPATLSLSPGERATLSCRASQSVSSYLAWYQQKPGQAPRLLIYDASNRATGIPARFSGSGSGTDFTLTISSLEPEDFAVYYCQQRNNWPYTFGQGTKLEIK
notes: Tested as full-length mAb expressed in CHO cells; also called antibody 25; L25H25

Kd [1]: 86.7 nM
koff [1]: 0.00294 s⁻¹
kon [1]: 33900 M⁻¹ s⁻¹
Kd [2]: 86.7 nM
B4: A13 (antibody, V domains shown)
VH: QVQLVQSGAEVKKPGASVKVSCKASGYTFTTYGISWVRQAPGQGLEWMGWISAHNGNTNYAQKFQGRVTMTTDTSTSTAYMELRSLRSDDTAVYYCVRDGAVADYYYGMDVWGQGTTVTVSS
VL: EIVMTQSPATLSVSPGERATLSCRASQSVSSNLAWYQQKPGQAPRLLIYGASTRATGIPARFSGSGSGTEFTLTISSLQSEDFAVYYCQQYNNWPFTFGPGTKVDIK
notes: Tested as full-length mAb expressed in CHO cells; also called antibody A13; L13H13

Kd [1]: 5.05 nM
koff [1]: 0.000516 s⁻¹
kon [1]: 102000 M⁻¹ s⁻¹
PD-1/PD-L1 blockage (IC50, µg/ml) (PD-1 expressed on cells): 3.16 µg/mL
Kd [2]: 5.1 nM
B5: A12 (antibody, V domains shown)
VH: QVQLVESGGGVVQPGRSLRLSCAASGFTFSSYGMHWVRQAPGKGLEWVAVIWYDGSNKYYADSVKGRFTISRDNSKNTLYLQMNSLRAEDSAVYYCVCNPFDYWGQGTLVTVSS
VL: DIQMTQSPSSLSASVGDRVTVTCRSSQGIAHYLAWYQQKPGKVPKVLLYAASTLQSGVPSRFSGSGSGTDFTLTISSLQPEDVATYYCQKYNSAPYTFGQGTKLEIK
notes: Tested as full-length mAb expressed in CHO cells; also called antibody A12; L12H12

Kd [1]: 8.32 nM
koff [1]: 0.00195 s⁻¹
kon [1]: 235000 M⁻¹ s⁻¹
Kd [2]: 8.3 nM
B6: A15 (antibody, V domains shown)
VH: QVQLQESGPGLVKPSETLSLTCTVSGGSISSYYWSWIRQPPGKGLEWIGYIYYSGSTNYNPSLKSRVTISEDTSKNQFSLKLSSVTAADTAVYYCARDEGATFFDYWGQGTLVTVSS
VL: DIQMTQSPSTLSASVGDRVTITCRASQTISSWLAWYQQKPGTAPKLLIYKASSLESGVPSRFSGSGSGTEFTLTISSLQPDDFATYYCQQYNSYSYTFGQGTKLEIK
notes: Tested as full-length mAb expressed in CHO cells; also called antibody 15; L15H15

Kd [1]: 13 nM
koff [1]: 0.00142 s⁻¹
kon [1]: 110000 M⁻¹ s⁻¹
Kd [2]: 13 nM
B7: A21 (antibody, V domains shown)
VH: QVQLVQSGAEVKKPGASVKVSCKASGYTFTSYYMHWVRQAPGQGLEWMGIINPSGSSTSYAQKFQGRVTMTRDTSTSTVYMELSSLRSEDTAVYYCARYGVWGSYRSLDYWGQGTLVTVSS
VL: AIQMTQSPSSLSASVGDRVTITCRASQGIRNELGWYQQKPGKAPKLLICAASSLQSGVPSRFSGSGSGTDFTLTISSLQPEDFATYYCLQDYIYPYTFGQGTKLEIK
notes: Tested as full-length mAb expressed in CHO cells; also called antibody 21; L21H21

Kd [1]: 412 nM
koff [1]: 0.00667 s⁻¹
kon [1]: 16200 M⁻¹ s⁻¹
Kd [2]: 412 nM
B8: A22 (antibody, V domains shown)
VH: QVQLVESGGGVVQPGRSLRLSCAASGFTFSNYGMHWVRQAPGKGLEWVAVIWYDGSNKYYADSVKGRFTISRDNSKNTLYLQMNSLRAEDTAVYYCARLYYYDSSGYYPDAFDIWGQGTMVTVSS
VL: DIQMTQSPSSLSASVGDRVTITCRASQGIRNDLGWYQQKPGKAPKRLIYAASSLQSGVPSRFSGSGSGTEFTLTISSLQPEDFATYYCLQHNSYPFTFGPGTKVEIK
notes: Tested as full-length mAb expressed in CHO cells; also called antibody 22; L22H22
